What was measured:
Smurf1 = target: T1, Smurf1 (Homo sapiens, UniProt Q9HCE7); test: Immuno-precipitation and western blot of Smad1/5/8 ubiquitination in hMSC; format: cell-based; settings: hMSC pre-treated with MG132, 10 mM peptide, 1 hour 30 minutes; compared with MG132 only; FIG. 2B
T1 construct: endogenous in cells; host or cells: human mesenchymal stem cells (hMSC)
Text: In order to confirm presence or absence of the active site of the cell permeable peptide-bone differentiation inducing sequence conjugate synthesized by the method in Example 1 for binding to Smurf1, an immuno-precipitation method and a western blot assay method were used. The present experimental method is applied in order to confirm that the cell permeable peptide-bone differentiation inducing sequence conjugate synthesized by the method in Example 1 may suppress a bioactivity of Smurf1 decomposing Smd1/5/8 as one of the E3 ligases playing a role in ubiquitin ligation.
1×10^6 human mesenchymal stem cells (hMSC) used as a model cell in the present experiment were plated in each dish and then cultured in a general medium for 20 hours (overnight incubation). Then the cells was cultured in an hMSC basal medium (MSCBM™, LONZA, USA) containing 0.5% fetal bovine serum (FBS, GIBCO, USA) for 20 hours (overnight starvation). After overnight starvation in 0.5% MSCBM™, […] MG132 (MG132; proteasome inhibitor, Merck, USA) was added to the same medium to allow the cells to be pre-treated for 2 hours. Thereafter, the cell permeable peptide-bone differentiation inducing sequence conjugate synthesized by the method in Example 1 and peptides of Comparative Examples 1 and 2 were injected into each dish at a concentration of […], respectively, and cultured for 1 hour 30 minutes. […]

ALP, OCN, and RUNX2 = test: Bone differentiation marker genes by quantitative real-time PCR and electrophoresis; format: cell-based, human; settings: EtBr agarose gel, compared with PBS; FIG. 4C
Protocol: In order to confirm cell differentiation ability of the cell permeable peptide-bone differentiation inducing sequence conjugate through bone tissue differentiation marker genes, human mesenchymal stem cells (hMSC) were seeded in each well of a 6 cm-dish at 1×10^5/well, and then incubated in a general medium for 20 hours (overnight) for cell stabilization. After 20 hours of incubation, the cells were treated with the cell permeable peptide-bone differentiation inducing sequence conjugate and 10 μm of the bone differentiation inducing sequence of Comparative Example 2 for 72 hours.
After that, the entire RNA was separated from the treated cells, using a Trizol® reagent (reagent for isolating RNA from cell and tissue samples) (Invitrogen Life Technologies, USA), according to the manufacturer's instructions, and the amount and purity of the entire RNA were measured by the spectrophotometer. […]
In order to carry out the quantitative real-time PCR, cDNA to be used as a template and primers were mixed, like in RT-PCR, and then 10 μl of SYBR® Green Premix Ex Taq (TaKaRa, JAPAN) was mixed therewith to prepare a reaction material. […] The CT value of each gene was […] the CT value for housekeeping GAPDH gene and the value calculated based on the negative control was taken, so that comparison in the degree of mRNA expression was conducted (Shin et al., (2007) Plant J. 49, 981-994).

T1 sequence (Q9HCE7 whole entry): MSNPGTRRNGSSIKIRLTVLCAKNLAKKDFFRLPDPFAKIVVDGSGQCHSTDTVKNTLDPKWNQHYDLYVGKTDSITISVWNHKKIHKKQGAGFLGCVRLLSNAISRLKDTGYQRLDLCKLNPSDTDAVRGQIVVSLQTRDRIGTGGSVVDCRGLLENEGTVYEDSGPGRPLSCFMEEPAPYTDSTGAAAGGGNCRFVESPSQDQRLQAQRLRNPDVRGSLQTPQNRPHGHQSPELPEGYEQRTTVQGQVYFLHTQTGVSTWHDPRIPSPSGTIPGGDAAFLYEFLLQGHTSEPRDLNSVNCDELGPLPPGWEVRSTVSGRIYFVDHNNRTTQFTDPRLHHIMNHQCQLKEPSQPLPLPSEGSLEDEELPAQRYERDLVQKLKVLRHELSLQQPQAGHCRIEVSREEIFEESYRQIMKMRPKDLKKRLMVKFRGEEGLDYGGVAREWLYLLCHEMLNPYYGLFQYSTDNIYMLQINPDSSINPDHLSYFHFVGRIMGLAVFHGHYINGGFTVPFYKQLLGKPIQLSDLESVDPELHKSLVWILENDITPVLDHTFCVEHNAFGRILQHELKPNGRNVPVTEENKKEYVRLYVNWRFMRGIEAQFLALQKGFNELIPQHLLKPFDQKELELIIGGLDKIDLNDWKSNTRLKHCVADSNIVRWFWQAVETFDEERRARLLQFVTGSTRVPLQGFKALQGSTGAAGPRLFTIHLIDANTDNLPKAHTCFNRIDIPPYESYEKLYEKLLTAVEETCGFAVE

NH2-GAPPPADSAP-SSRKKNPNCRRH-C-COONH2 (H-GAPPPADSAPSSRKKNPNCRRHC-NH2; cysteine pairing not given here) [Example 1]
ubiquitination of Smad1/5/8 (ubiquitin antibody after Smad1/5/8 immuno-precipitation) (Smurf1): ubiquitination of Smad1/5/8 was suppressed | bands of ALP, OCN, and RUNX2 PCR products (electrophoresis) (ALP, OCN, and RUNX2): noticeably increased bands
